Columns and labels:
Test in all cases: fluorescence polarisation
NHERF2 PDZ2 = NHERF2 PDZ2 (UniProt Q15599 142-280)
DLG1 PDZ1 = DLG1 PDZ1 (UniProt Q12959 220-317)
SNX27 PDZ = SNX27 PDZ (UniProt Q96L92 41-135)
MAGI1 PDZ2 = MAGI1 PDZ2 (UniProt Q96QZ7 471-554)
Chain of MAGI1 PDZ2 (Q96QZ7 471-554): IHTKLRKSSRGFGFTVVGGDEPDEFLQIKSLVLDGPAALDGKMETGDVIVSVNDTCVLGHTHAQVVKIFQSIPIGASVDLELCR

Chain of DLG1 PDZ1 (Q12959 220-317): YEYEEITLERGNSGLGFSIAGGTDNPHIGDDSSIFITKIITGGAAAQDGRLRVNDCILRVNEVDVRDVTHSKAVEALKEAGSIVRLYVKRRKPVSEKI
Chain of NHERF2 PDZ2 (Q15599 142-280): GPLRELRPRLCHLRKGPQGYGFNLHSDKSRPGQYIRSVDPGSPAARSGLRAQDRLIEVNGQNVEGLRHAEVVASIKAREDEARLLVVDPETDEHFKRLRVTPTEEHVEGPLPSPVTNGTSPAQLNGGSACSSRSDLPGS

B1: _(SSRT)CFTR peptide (peptide)
peptide: SSRTVQDTRL
NHERF2 PDZ2
  Ki: 1.7 ± 0.4 µM
DLG1 PDZ1
  Ki: > 1000 µM
SNX27 PDZ
  Ki: 0.46 ± 0.11 µM
MAGI1 PDZ2
  IC50: > 1000 µM
